Assay results reported in article PMC12106912 (International Journal of Nanomedicine, 2025).

Molecular target: Glypican-3 (GPC3), surface antigen of HepG2 cells (Homo sapiens (endogenous, HepG2), UniProt P51654)
Experiment: co-IP

Glypican-3 (GPC3), surface antigen of HepG2 cells, sequence (P51654 25-580): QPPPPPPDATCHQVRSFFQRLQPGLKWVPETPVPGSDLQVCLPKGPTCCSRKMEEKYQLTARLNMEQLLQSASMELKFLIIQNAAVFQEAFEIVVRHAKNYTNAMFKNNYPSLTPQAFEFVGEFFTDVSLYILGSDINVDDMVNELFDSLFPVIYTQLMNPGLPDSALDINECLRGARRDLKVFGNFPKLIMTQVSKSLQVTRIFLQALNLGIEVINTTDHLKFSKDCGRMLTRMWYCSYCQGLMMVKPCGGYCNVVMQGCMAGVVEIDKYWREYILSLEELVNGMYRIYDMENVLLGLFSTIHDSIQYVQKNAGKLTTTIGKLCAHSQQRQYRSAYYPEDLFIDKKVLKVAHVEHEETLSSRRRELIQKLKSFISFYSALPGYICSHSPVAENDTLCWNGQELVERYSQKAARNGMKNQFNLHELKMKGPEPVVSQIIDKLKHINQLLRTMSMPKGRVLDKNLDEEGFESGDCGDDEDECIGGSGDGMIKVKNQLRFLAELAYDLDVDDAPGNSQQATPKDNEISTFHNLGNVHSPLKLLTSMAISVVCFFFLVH

B1: Hbp-hGC33-scFv/Myc fusion protein displayed on the membrane surface of E. coli outer membrane vesicles (hGC33-OMVs) (scFv, V domains shown)
VH: QVQLVQSGAEVKKPGASVKVSCKASGYTFTDYEMHWVRQAPGQGLEWMGALDPKTGDTAYSQKFKGRVTLTADKSTSTAYMELSSLTSEDTAVYYCTRFYSYTYWGQGTLVTVSS
VL: DVVMTQSPLSLPVTPGEPASISCRSSQSLVHSNGNTYLHWYLQKPGQSPQLLIYKVSNRFSGVPDRFSGSGSGTDFTLKISRVEAEDVGVYYCSQNTHVPPTFGQGTKLEIK
B1: binds.
